Article PMC4755751 (eLife, 2015)

What was measured:
[1] = target: T1, Biotinylated His14-Avi-bdSUMO-tagged Nup98^716-866 (Xenopus tropicalis, UniProt A0A1B8XZT4, biotin on the Avi-tag); assay: pull-down; biotinylated His14-Avi-bdSUMO-Nup98^716-866 immobilized on Streptavidin agarose; GFP-tagged TP377 bound without or with an equimolar amount or fivefold excess of nanobody competitor; elution by cleavage of the bdSUMO tag; SDS-PAGE, Coomassie; conditions: both partners purified
T1 construct: also called Nup98 NPC anchor domain

[2] = target: T2, Nup98 (endogenous, Xenopus egg extract) (Xenopus laevis (egg extract), UniProt A0A8J1MFV7); assay: affinity purification with mass spectrometry; biotinylated tagged nanobody on magnetic Streptavidin beads, Xenopus egg extract (HSS) 1 h at 4°C, washes in S250 and in 50 mM Tris/HCl pH 7.5, 300 mM NaCl, 0.05% Tween-20, RanQ69L•GTP wash, elution by SUMOStar protease; SDS-PAGE, Coomassie, bands identified by mass spectrometry; conditions: one partner purified
T2 construct: Xenopus Nup98, FG-repeat nucleoporin; source: endogenous, Xenopus egg extract (high-speed supernatant)

[3] = target: T3, Nup98 in nuclear pore complexes of Xenopus laevis XL177 cells (Xenopus laevis XL177 cells, UniProt A0A8J1MFV7); assay: immunostaining of cells or tissue; digitonin-permeabilized Xenopus laevis XL177 cells, 1-10 nM fluorescent nanobody 15 min on ice, washed, then fixed; confocal laser scanning microscopy; conditions: one partner purified
T3 construct: Xenopus laevis Nup98 within intact NPCs; also called (x)Nup98; source: endogenous, digitonin-permeabilized Xenopus laevis XL177 cells

| binding result [1] | Binder | also measured |
| --- | --- | --- |
| binds | untagged TP377 produced in the oxidative periplasm (VHH, also called oxidized, disulfide bond-stabilized nanobody; source: E. coli BLR periplasm) VHH: QVQLVESGGGPVEAGGSLRLSCAASGRSFSNSVMAWFRQAPGKEREFLSVLNWSSGRTSIADSVKGRFTMSRDPAKITVYLQMNGLKPEDTAVYYCAASNRGSLYTLDNQNRYEDWGQGTQVTVSS | – |
| – | Biotinylated His14-Avi-(GlySer)9-SUMOStar-(GlySer)9-tagged anti-Nup98 nanobody TP377 (VHH, source: E. coli cytoplasm, co-expressed with BirA, purified (Ni2+ chelate, imidazole elution); not shown: His14, N-terminal, kept; (GlySer)9-scSUMOStar-(GlySer)9, N-terminal, kept) VHH: QVQLVESGGGPVEAGGSLRLSCAASGRSFSNSVMAWFRQAPGKEREFLSVLNWSSGRTSIADSVKGRFTMSRDPAKITVYLQMNGLKPEDTAVYYCAASNRGSLYTLDNQNRYEDWGQGTQVTVSS | binding result [2]: binds |
| binds | 3x Alexa Fluor 488-labeled TP377 (VHH, also called 3xCys; source: E. coli cytoplasm, purified (Ni2+ chelate, bdNEDP1 cleavage), labeled with Alexa Fluor 488 maleimide; not shown: His14-bdNEDD8, N-terminal, cleaved) VHH: QVQLVECGGGPVEAGGSLRLSCAASGRSFSNSVMAWFRQAPGKEREFLSVLNWSSGRTSIADSVKGRFTMCRDPAKITVYLQMNGLKPEDTAVYYCAASNRGSLYTLDNQNRYEDWGQGTQVTVSS | – |
| binds | unlabeled TP377 (competitor in Figure 5—figure supplement 1c) (VHH) VHH: QVQLVESGGGPVEAGGSLRLSCAASGRSFSNSVMAWFRQAPGKEREFLSVLNWSSGRTSIADSVKGRFTMSRDPAKITVYLQMNGLKPEDTAVYYCAASNRGSLYTLDNQNRYEDWGQGTQVTVSS | – |
| – | anti-Nup98 nanobody TP377 carrying a single N-terminal Alexa Fluor 647 maleimide (VHH, not shown: His14-bdNEDD8, N-terminal, cleaved) VHH: QVQLVESGGGPVEAGGSLRLSCAASGRSFSNSVMAWFRQAPGKEREFLSVLNWSSGRTSIADSVKGRFTMSRDPAKITVYLQMNGLKPEDTAVYYCAASNRGSLYTLDNQNRYEDWGQGTQVTVSS | binding result [3]: binds |
| binds | untagged TP377 produced in the reductive cytoplasm of E. coli BLR (VHH, also called reduced variant; source: E. coli BLR cytoplasm) VHH: QVQLVESGGGPVEAGGSLRLSCAASGRSFSNSVMAWFRQAPGKEREFLSVLNWSSGRTSIADSVKGRFTMSRDPAKITVYLQMNGLKPEDTAVYYCAASNRGSLYTLDNQNRYEDWGQGTQVTVSS | – |
| binds | untagged TP377 produced in the mildly oxidative cytoplasm of E. coli SHuffle (VHH, also called SHuffle-expressed TP377; source: E. coli SHuffle cytoplasm; not shown: His14-bdNEDD8, N-terminal, cleaved) VHH: QVQLVESGGGPVEAGGSLRLSCAASGRSFSNSVMAWFRQAPGKEREFLSVLNWSSGRTSIADSVKGRFTMSRDPAKITVYLQMNGLKPEDTAVYYCAASNRGSLYTLDNQNRYEDWGQGTQVTVSS | – |
